Reference: patent US20230322908A1 (AC IMMUNE, published 2023)

How the values were obtained:
[1] = target: T1, recombinant human full-length TDP-43 (TAR DNA-binding protein 43), soluble (human, UniProt Q13148 1-414); experiment: SPR, immobilized soluble TDP-43
T1 construct: Used on Luminex beads, coated on ELISA plates, and immobilized or injected in SPR; also called FL TDP-43; TDP-43 protein
Experimental: (§1) Binding avidity to soluble or aggregated FL TDP-43 was evaluated by determing the dissociation constants (KD) using surface plasmon resonance (SPR; Biacore T200, GE Healthcare Life Sciences). Recombinant human soluble or aggregated FL TDP-43 were immobilized on a CM5 Series S sensor chip (GE Healthcare Life Sciences) by amine coupling. Soluble TDP-43 was immobilized at a concentration of 5 µg/ml in 10 mM sodium acetate (pH 4.5) with a flow rate of 5 µl/min for 420 seconds resulting in an immobilization level of 150 RU. Aggregated TDP-43 was immobilized at a concentration of 50 µg/ml in 10 mM sodium acetate (pH 4.5) with a flow rate of 5 µl/min for 840 seconds resulting in an immobilization level of 110 RU. Biotinylated TP-73 peptide (aa 181-190 of SEQ ID NO:1) was immobilized on a Series S Sensor Chip SA (GE Healthcare Life Sciences) at a concentration of 5 µg/ml in PBS-P⁺ with a flow rate of 5 µl/min for 30 seconds resulting in an immobilization level of 400 RU. […] The antibodies were injected at a flow rate of 50 µl/min for 90 seconds contact time and 700 seconds dissociation phase followed by three regenerations with 10 mM glycine-HCl pH 1.7. For the optimized SPR protocol the antibodies were diluted 3-fold starting from 300 nM and dilute down to 1.2 nM and injected for 300 seconds at 30 µl/min followed by 600 seconds dissociation. The surface was regenerated by one injection with 10 mM glycine-HCl pH 1.7. Results obtained from binding kinetics were double-referenced using a blank flow cell and a buffer cycle and were evaluated with a global 1:1 fitting model with RI. Avidities for 11 antibodies and two Fab fragments are depicted in Table 8. […] In addition, some antibodies show preferential binding to aggregated TDP-43 as compared with soluble TDP-43.

[2] = target: T2, recombinant human aggregated full-length TDP-43 (human, UniProt Q13148 1-414); experiment: SPR, immobilized aggregated TDP-43
T2 construct: also called aggregated TDP-43; aggregated FL TDP-43
Experimental: as §1

[3] = target: T1, recombinant human full-length TDP-43 …; experiment: indirect ELISA, coated FL TDP-43
Experimental: Antibody binding to human FL TDP-43 was determined using an indirect ELISA. ELISA plate coating with 1 µg/ml human FL TDP-43 was performed overnight in carbonate buffer at 4° C. Plates were washed with 0.05% Tween-20/PBS and then blocked with 1% bovine serum albumin (BSA) in 0.05% Tween-20/PBS for 1 hour at 37° C. Antibodies purified from hybridoma supernatants were then added in a 3-fold serial dilution starting at 1 µg/ml, and incubated for 2 hours at 37° C. after which the plates were washed. An AP-conjugated anti-mouse IgG secondary antibody (Jackson Immunoresearch Laboratories, United Kingdom) was added at 1/1000 dilution in 0.05% Tween-20/PBS for 1 hour at 37° C. After the final wash, plates were incubated with pNPP (Sigma-Aldrich, Switzerland) phosphatase substrate solution, and read at 405 nm using an ELISA plate reader (Tecan, Switzerland).

[4] = target: T1, recombinant human full-length TDP-43 …; experiment: SPR, mAb captured, FL TDP-43 injected; mean
Experimental: Binding affinity to soluble FL TDP-43 was evaluated by determing the dissociation constants (KD) using surface plasmon resonance (SPR; Biacore T200, GE Healthcare Life Sciences). Goat-anti mouse capture antibody was immobilized on a CM5 Series S sensor chip (GE Healthcare Life Sciences) by amine coupling. Antibodies were captured at a concentration of 2-5 µg/ml in PBS-P⁺ (GE Healthcare Life Sciences) with a flow rate of 10 µl/min for 120 seconds resulting in a capture level of 350-1000 RU. […] Dissociation was recorded for 1 h followed by one regeneration with 10 mM glycine-HCl pH 1.7. Results obtained from binding kinetics were double-referenced using a blank flow cell and a buffer cycle and were evaluated with a global 1:1 fitting model with RI.

[5] = target: T1, recombinant human full-length TDP-43 …; experiment: Luminex, FL TDP-43 on beads
Experimental: Mice were euthanized and fusion with myeloma cells was performed using splenocytes from four individual mice. Screening for antibodies from the successfully fused hybridoma cell lines were performed as follows. Diluted (1:32) cell culture supernatants were analyzed using Luminex bead-based multiplex assay (Luminex, The Netherlands). Luminex beads were conjugated to FL TDP-43 and with capturing IgGs with anti-mouse IgG-Fc antibodies specific for the IgG1, IgG2a, IgG2b, IgG2c, and IgG3 subclasses (Jackson Immunoresearch, USA). Binding to beads conjugated to FL TDP-43 identified 386 hits derived from mice immunized with the FL TDP-43 liposomal vaccine.
Luminex assays with serial dilution of antibodies were performed as described before to determine half maximal effective concentration (EC50) of binding of antibodies to FL TDP-43. In summary, all tested antibodies bind to full length TDP-43 with high affinity.

[6] = target: T2, recombinant human aggregated …; experiment: SPR optimized protocol, immobilized aggregated TDP-43
[7] = target: T1, recombinant human full-length TDP-43 …; experiment: SPR optimized protocol, immobilized soluble TDP-43

T2 sequence (Q13148 whole entry): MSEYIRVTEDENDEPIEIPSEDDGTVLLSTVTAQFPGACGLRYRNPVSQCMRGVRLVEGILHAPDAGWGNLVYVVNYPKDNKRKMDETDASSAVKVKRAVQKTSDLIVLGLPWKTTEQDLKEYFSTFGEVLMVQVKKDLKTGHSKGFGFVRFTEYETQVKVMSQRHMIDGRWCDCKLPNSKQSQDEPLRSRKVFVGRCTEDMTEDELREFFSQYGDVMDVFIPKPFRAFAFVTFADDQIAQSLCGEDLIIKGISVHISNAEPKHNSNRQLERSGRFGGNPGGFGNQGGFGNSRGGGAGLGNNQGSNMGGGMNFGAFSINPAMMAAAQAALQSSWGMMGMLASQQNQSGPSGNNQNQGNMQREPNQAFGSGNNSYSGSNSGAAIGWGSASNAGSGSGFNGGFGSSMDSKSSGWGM
T1 sequence (Q13148 whole entry): as above

Binder	Kd [1] [nM]	koff [1] [s⁻¹]	kon [1] [M⁻¹ s⁻¹]	Kd [2] [nM]	koff [2] [s⁻¹]	kon [2] [M⁻¹ s⁻¹]	EC50 [3] [µg/mL]	Kd [4] [nM]	koff [4] [s⁻¹]	kon [4] [M⁻¹ s⁻¹]	EC50 [5] [nM]	Kd [6] [nM]	koff [6] [s⁻¹]	kon [6] [M⁻¹ s⁻¹]	Kd [7] [nM]	koff [7] [s⁻¹]	kon [7] [M⁻¹ s⁻¹]
ACI-7071-809F12-Ab1 (antibody, mouse IgG2b, V domains shown, Mouse IgG2b, kappa, from hybridoma; also called 809F12D8) VH: QVQLKESGPGLVAPSQSLSITCTVSGFSLNRNGVQWVRQPPGKGLEWLGVIWPGGSTNCNSALMSRLSISKDNSKSQVFLKMNSLHTDDTGIYYCARVGGNYVWDYNNYAWGQGTLVTVSA VL: DVLMTQTPLSLPVSLGDQASISCRSSQNIVHSIGNTYLEWYLQKPGQSPKLLIYKVSNRFSGVPDRFSGSGSGTDFTLKISRVEAEDLGVYYCFQGSHVPYTFGGGTKLEIR	1.68	0.000167	99400	0.81	7.63e-05	94700	0.014	0.423	1.36e-05	32000	< 0.01						
ACI-7069-641H1-Ab2 (antibody, mouse IgG2b, V domains shown, Mouse IgG2b, kappa, from hybridoma; also called 641H1E7) VH: QVQLKESGPGLVAPSQSLSITCTVSGFSLTNYGVHWVRQPPGKGLEWLGLMWAGGSTNYNSALMSRLSISKDNSKSQVFLKMNSLQTDDTAMYYCVIYRTGFAYWGQGTLVTVSA VL: DVLMTQTPLSLPVSLGDQASISCRSSQSIVHTIGNTYLEWYLQKPGQSPKLLIYKVSNRFSGVPDRFSGSGSGTDFTLKISRVEAEDLGVYYCFQGSHVPFTFGSGTKLEIK	6.76	0.000841	125000	1.6	0.000193	121000	0.016				< 0.01						
ACI-7069-646B7-Ab1 (antibody, mouse IgG2b, V domains shown, Mouse IgG2b, kappa, from hybridoma; also called 646B7F7) VH: QVQLKESGPGLVAPSQSLSITCTVSGFSLTNFGVHWVRQPPGKGLEWLGIMWAGGSTNYNSALMSRLSISKDNSKSQVFLKMNSLQTDDTAMYYCVIYKTGFAYWGQGTLVTVSA VL: DVLMTQTPLSLPVSLGDQASISCRSSQSIVHAIGNTYLEWYLQKPGQSPKLLIYKVSNRFSGVPDRFSGSGSGTDFTLKISRVEAEDLGVYYCFQGSHVPFTFGSGTKLEIK	3.66	0.00065	178000	1.28	0.000184	144000	0.011				< 0.01						
ACI-7071-712A6-Ab1 (antibody, mouse IgG2c, V domains shown, Mouse IgG2c; also called 712A6B10) VH: QVQLQQSGAELVKPGTSVKLSCKASAYTFTEYTIHWIKQKSGQGLEWIGWFHPENDNIKYNENFKDKATLTADRSSSTVYMELSRLTSEDSAVYFCAGTSGYGDYWGQGTTLTVSS VL: not shown	406	0.000545	1340	0.68	2.36e-05	34800	0.102				0.18						
ACI-7069-634H10-Ab2 (antibody, mouse IgG2b, V domains shown, Mouse IgG2b, kappa, from hybridoma; also called 634H10H7) VH: EVQLQQSGAELVKPGASVRLSCTASGFNIKDTYMHWVKQRPEQGLEWIGRIDPANSNTKFDPKFQGKATITSDTSSNTAYLQLSSLTSEDTAVYYCARFYGGSHWYFDVWGAGTTVTVSS VL: DIKMTQSPSSMYASLGERVTITCKASQDIKSYLSWYQHKPWKSPKALIYYATSLADGVPSRFSGSGSGQDYSLTISSLESDDTATYYCLQQGESPYTFGGGTKLEIK	19.7	0.000874	44300	1.51	0.000166	110000	0.053				< 0.01						
ACI-7069-642D12-Ab1 (IgG2a variant) (antibody, V domains shown, Recombinantly produced mouse IgG2a isotype; also called 642D12B4 *; ACI-7069-642D12-Ab1 (IgG2a isotype)) VH: EVQLQQSGAELVKPGASVRLSCTASGFNIKDPYMHWVRQRPKQGLEWIGRIDPADGNTKYDPKFQGKATLTADTSSNVAYLHLSSLTSEDTAVYYCARFYGSSHWYFDVWGAGTTVTVSS VL: DIKMTQSPSSMYASLGERVTITCKASQDIKRYLSWYQQKPWKSPKILIYYATSLADGVPSRFSGTGSGQDYSLTISSLESDDVATYYCLQQGESPYTFGGGTKLEIK												0.69	9.87e-05	149000	3.9	0.00045	115000
ACI-7069-633B12-Ab1 (IgG2a variant) (antibody, V domains shown, Recombinantly produced mouse IgG2a isotype; also called 633B12C8*; ACI-7069-633B12-Ab1 (IgG2a isotype)) VH: EVQLQQSGPELVKPGASVKISCKTSGFTFTEYSMHWVKQSHGKSLEWIGGINPNNGGTSYNQKFKGKATLTVDKSSSTAYMELRSLTSEDSAVYYCARESWGQGTTLTVSS VL: not shown												0.18	1.32e-05	84000	0.22	1.08e-05	61800
ACI-7071-809D9-Ab2 (antibody, mouse IgG2b, V domains shown, Mouse IgG2b, kappa, from hybridoma; also called 809D9C2) VH: QVQLQQSGAELVRPGVSVKISCKGSGYKFTDYSMHWVKQSHTKSLEWIGVISTYYGDTTYNQKFKGKATITVDKSSSTAYMELARLTSEDSAIYYCATYGNFPASFSYWGQGTLVTVSA VL: DIVMTQAAPSIPVTPGESVSISCRSSKSLLHSNGNTYLYWFLQRPGQSPQLLIYRMSNLASGVPDRFSGSGSGTAFTLRISRVEAEDVGVYYCMQHLEYPFTFGSGTKLEIK	10.6	0.000821	77100	2.25	0.000216	95900	0.017				< 0.01						
ACI-7069-636E5-Ab1 (antibody, mouse IgG2b, V domains shown, Mouse IgG2b, lambda, from hybridoma; also called 636E5B8) VH: EVHLVESGGDLVMPGGSLKLSCAASGFTFSNYGMSWVRQTPDKRLEWVATISSGGKYINYLDSLKGRFTISRDNAKNTLYLQMSSLKSEDTAMYYCAKDYGSGWAWFAYWGQGTLVTVSA VL: QLVLTQSSSASFSLGASAKLTCTLSSQHSTYTIEWYQQQPLKPPKYVMELKKDGSHSTGDGIPDRFSGSSSGADRYLSISNIQPEDEAIYICGVGDTIKEQFVYVFGGGTKVTVL	43.8	0.000682	15600	2.43	0.000274	113000	0.015				< 0.01						
